Laboratory results reported in patent US20210395310A1, “Cyclic Peptide” (The University of Tokyo, priority 2018, published 2021).
Each block holds one molecule with its values, some of them ahead of it. Positions of bridges follow the written chain, without caps; N, C: chain ends. Non-standard residues stand in square brackets, D forms with d. Primed or numbered codes have the meaning given here. No end group written: not given here. PEG11′ = PEG11 linker (11-unit polyethylene glycol spacer); PEG5′ = not defined here; PEG11″ = PEG11 linker; βAla = NCCC(=O)O

Key:
HGF [1] = molecular target: T1, HGF (Homo sapiens, UniProt P14210); assay: Binding of cyclic peptides to immobilized HGF by SPR (Biacore T200); conditions: immobilized biotinylated HGF, single cycle kinetics; for kon: read-out: Ka (association rate); for koff: read-out: Kd (dissociation rate)
T1 construct: the full-length human HGF cDNA was cloned into pEHX1.1 plasmid; made in house; host or cells: Chinese hamster ovary (CHO) cells
Description: (§1) Binding of the cyclic peptides to immobilized HGF was measured using surface plasmon resonance (SPR) with Biacore T200 (product of GE Healthcare). Specifically, 2000 resonance units (RU) of biotinylated HGF was immobilized onto a CAP sensor chip by using a biotin capture kit (product of GE Healthcare).
(§2) Binding of the cyclic peptides was tested by injecting varying concentrations of the cyclic peptides into an HBS EP+buffer (10 mM HEPES (pH 7.4), 150 mM NaCl, 3 mM EDTA, and 0.05% (v/v) Surfactant P20) containing 0.1% DMSO at a flow rate of 30 μl/min. Binding of the cyclic peptides to HGF was analyzed by single cycle kinetics analysis.

PC-9 cells = assay: Gefitinib resistance test; type: cell-based, human; parameters: growth of lung cancer cells: dose or concentration left out as unconfirmed
Description: The resistance to gefitinib, an anticancer agent, was tested by seeding human lung cancer cells, PC-9 cells, on a 24-well plate and cultured for 24 hours on a RPMI medium containing 10% fetal bovine serum. The number of living cells was counted after non-addition or addition of gefitinib ([…]), HGF (20 ng/mL), or HiP8-PEG11 (1-1000 nM) and culturing for 72 hours.

HGF [2] = molecular target: T1, HGF; assay: MET activation test: inhibition of HGF-induced MET activation in EHMES-1 cells; type: cell-based; conditions: at a concentration of 100 nM or more
Description: EHMES-1 Cells were stimulated for 10 minutes while using a medium with 20 ng/ml ([…]) of an hHGF protein in the presence or absence of a cyclic peptide and washed with phosphate-buffered physiological saline (PBS). Then, 4% paraformaldehyde (PFA) was added in PBS and the resulting mixture was incubated for 30 minutes, followed by further washing three times with PBS. The cells were […] for 30 minutes with 5% goat serum and 0.02% Triton X-100 in PBS and then, incubated at 4° C. for 12 hours in Phospho-Met (Tyr1234/1235) XP rabbit mAb (D26, product of Cell Signaling Technology, Danvers, Commonwealth of Massachusetts), a monoclonal antibody. As the monoclonal antibody, used was that diluted at 1:1000 in a 1% goat serum PBS suspension. The cells were washed three times with PBS and incubated for 1 hour in a liquid obtained by diluting an HRP-conjugated anti-rabbit antibody and a 1% goat serum PBS suspension at 1:1000. […] By using a chemiluminescence method with ImmunoStar (registered trademark) LD reagent (product of Wako Pure Chemicals, Japan), chemiluminescence intensity was measured by ARVO MX (product of Perkin Elmer). Relative MET phosphorylation was calculated as the following: (chemiluminescence unit of sample—chemiluminescence unit of mock control)/(chemiluminescence unit of […]—chemiluminescence unit of mock control). […]
Target sequence in this assay (P14210 32-489 isoform P14210-3): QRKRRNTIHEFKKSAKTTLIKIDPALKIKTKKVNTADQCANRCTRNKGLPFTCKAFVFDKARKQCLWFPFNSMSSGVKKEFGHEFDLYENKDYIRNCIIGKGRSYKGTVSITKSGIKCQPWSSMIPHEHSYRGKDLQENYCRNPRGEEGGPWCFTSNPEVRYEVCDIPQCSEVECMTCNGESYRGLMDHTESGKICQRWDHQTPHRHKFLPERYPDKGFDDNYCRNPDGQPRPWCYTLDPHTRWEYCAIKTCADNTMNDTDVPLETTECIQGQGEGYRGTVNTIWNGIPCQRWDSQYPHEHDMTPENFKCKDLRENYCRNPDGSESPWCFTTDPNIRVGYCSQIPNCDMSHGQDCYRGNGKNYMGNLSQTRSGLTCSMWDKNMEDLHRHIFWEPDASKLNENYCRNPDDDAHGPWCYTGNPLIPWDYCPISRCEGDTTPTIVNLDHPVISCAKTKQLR
Target sequence in this assay (P14210 495-728): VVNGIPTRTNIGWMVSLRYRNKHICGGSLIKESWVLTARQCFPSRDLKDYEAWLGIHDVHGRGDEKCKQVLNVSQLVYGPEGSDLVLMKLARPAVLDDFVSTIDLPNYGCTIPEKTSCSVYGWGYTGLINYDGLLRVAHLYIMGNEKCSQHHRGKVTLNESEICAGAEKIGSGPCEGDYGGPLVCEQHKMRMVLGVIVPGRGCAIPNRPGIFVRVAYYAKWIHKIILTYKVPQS

MET = molecular target: T2, MET (Homo sapiens, UniProt P08581); assay: MET activation assay using cells: MET activation by HGF in EHMES-1 cells; type: cell-based
T2 construct: endogenous in cells; host or cells: EHMES-1 cells
Description: In EHMES-1 cells, HGF activated MET at EC50=0.07 nM. The arrow in the graph indicates 0.22 nM HGF used for peptide assessment. […] The EC50 value was determined by using dose-response (variable gradient, 4 parameters) curve fitting of Prism 6.0d and plotting the logarithm of MET activation against an HGF concentration. Data thus obtained are expressed as mean±s.d. of three independent measurement results.
EHMES-1 Cells were stimulated for 10 minutes while using a medium with 20 ng/ml ([…]) of an hHGF protein in the presence or absence of a cyclic peptide and washed with phosphate-buffered physiological saline (PBS). Then, 4% paraformaldehyde (PFA) was added in PBS and the resulting mixture was incubated for 30 minutes, followed by further washing three times with PBS. […] By using a chemiluminescence method with ImmunoStar (registered trademark) LD reagent (product of Wako Pure Chemicals, Japan), chemiluminescence intensity was measured by ARVO MX (product of Perkin Elmer). Relative MET phosphorylation was calculated as the following: (chemiluminescence unit of sample—chemiluminescence unit of mock control)/(chemiluminescence unit of […]—chemiluminescence unit of mock control).

fluorescein-HGF [3] = molecular target: T3, fluorescein-HGF (human, UniProt P14210 32-728, labelled with a succinimidyl fluorescein labeling kit (sites not given)); assay: competition, flow cytometry: peptide varied against the binding of 0.44 nM fluorescein-HGF to MET-Fc beads [lower panel]
T3 construct: also called fluoresceinated HGF
Description: (§3) Labeling of hHGF with fluorescein was performed using a succinimidyl fluorescein labeling kit (product of Dojindo). On 200 μl (50% v/v) of protein G beads (Spherotech) in Tris-buffered physiological saline (pH 7.5) containing 0.1% BSA and […] of Tween-20, 5 μg of MET-extracellular domain-Fc fusion protein (product of R&D systems) was immobilized. […] The fluorescence intensity of the beads was detected using a flow cytometer (product of FACS Canto II, BD Biosciences).
(§4) For a competitive test of the cyclic peptide, for each of increased concentrations of the cyclic peptide, 0.44 nM fluorescein-HGF and MET-Fc immobilized beads were mixed, the resulting mixture was incubated at 25° C. for 1 hour, and fluorescence intensity of the beads was measured using a flow cytometer.

[4] = molecular target: human hepatocyte growth factor (HGF), recombinant full-length, active two-chain form (human, UniProt P14210 32-728); assay: cell-based or functional assay
[5] = molecular target: T4, biotinylated full-length human HGF (human, UniProt P14210 32-728, biotinylated with a succinimidyl biotin labeling kit (sites not given)); assay: SPR, Biacore T200, biotinylated HGF on CAP chip, peptide injected, single cycle kinetics
T4 construct: also called biotinylated HGF; biotinylated hHGF
Description: as §1, §2

fluorescein-HGF [6] = molecular target: T3, fluorescein-HGF; assay: competition, flow cytometry: HiP-8 varied against the binding of 0.44 nM fluorescein-HGF to MET-Fc beads
Description: as §3, §4

tcHGF(Xa) = molecular target: T5, tcHGF(Xa) (human, UniProt P14210 32-490; P14210 495-728); assay: SPR, Biacore 3000, HiP8-PEG11-biotin on streptavidin chip, tcHGF(Xa) injected, steady-state affinity
T5 construct: A C-terminal hexahistidine tag was added and the sample was treated with TEV protease; also called mature HGF (Xa)
Description: A very limited portion of the scHGF(Xa) bound to HiP-8-PEG11. A binding rate was detected by surface plasmon resonance (SPR). RU represents a resonance unit (resonance unit). The upward arrow and the downward arrow mean start and end of HGF input, respectively. Data are expressed as mean±s.d. of typical sensorgrams performed in two iterations by using HGFs having a plurality of concentrations.
Binding of HGF and HGF fragments to immobilized HiP8-PEG11 was measured by surface plasmon resonance (SPR) with Biacore 3000 (product of Ge Flealthcare). Hip8-PEG11-biotin was supported on the surface of a streptavidin-coated chip at 10 RU (resonance unit). The test was performed by injecting HGF and HGF fragments with varying concentrations into 10 mM TBS (pH 7.4), 150 mM NaCl, and 0.05% Tween 20 (v/v) at a flow rate of 30 μl/min. Binding affinity was analyzed from a fitting model of steady-state affinity by multi-cycle kinetics analysis.

fluorescein-HGF [7] = molecular target: T3, fluorescein-HGF; assay: competition, flow cytometry: peptide varied against the binding of 0.44 nM fluorescein-HGF to MET-Fc beads [upper panel]
Description: as §3, §4

T4 sequence (P14210 other isoform, or with tags, fused parts or gaps limits assumed): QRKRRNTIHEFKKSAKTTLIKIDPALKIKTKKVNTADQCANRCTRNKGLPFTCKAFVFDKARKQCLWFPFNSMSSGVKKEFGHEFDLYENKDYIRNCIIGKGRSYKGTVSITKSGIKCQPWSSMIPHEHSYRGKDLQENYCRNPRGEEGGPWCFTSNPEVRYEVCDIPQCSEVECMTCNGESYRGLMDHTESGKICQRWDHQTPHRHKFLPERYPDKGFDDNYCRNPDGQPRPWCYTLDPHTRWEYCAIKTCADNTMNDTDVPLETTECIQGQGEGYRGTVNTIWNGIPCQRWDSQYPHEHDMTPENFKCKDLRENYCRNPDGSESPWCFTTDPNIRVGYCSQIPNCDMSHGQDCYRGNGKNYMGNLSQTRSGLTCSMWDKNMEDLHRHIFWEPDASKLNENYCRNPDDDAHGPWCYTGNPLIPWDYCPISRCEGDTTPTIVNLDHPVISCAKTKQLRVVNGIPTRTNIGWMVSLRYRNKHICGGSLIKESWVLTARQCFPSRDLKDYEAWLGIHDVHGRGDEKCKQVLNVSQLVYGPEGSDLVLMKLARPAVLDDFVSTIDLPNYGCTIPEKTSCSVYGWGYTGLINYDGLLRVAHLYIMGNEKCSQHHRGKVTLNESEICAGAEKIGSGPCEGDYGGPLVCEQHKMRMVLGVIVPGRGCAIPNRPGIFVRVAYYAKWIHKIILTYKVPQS
T3 sequence (P14210 other isoform, or with tags, fused parts or gaps limits assumed): as above
Chain of human hepatocyte growth factor (HGF), recombinant full-length, active two-chain form (P14210 other isoform, or with tags, fused parts or gaps limits assumed): as above
T2 sequence (P08581 25-1390): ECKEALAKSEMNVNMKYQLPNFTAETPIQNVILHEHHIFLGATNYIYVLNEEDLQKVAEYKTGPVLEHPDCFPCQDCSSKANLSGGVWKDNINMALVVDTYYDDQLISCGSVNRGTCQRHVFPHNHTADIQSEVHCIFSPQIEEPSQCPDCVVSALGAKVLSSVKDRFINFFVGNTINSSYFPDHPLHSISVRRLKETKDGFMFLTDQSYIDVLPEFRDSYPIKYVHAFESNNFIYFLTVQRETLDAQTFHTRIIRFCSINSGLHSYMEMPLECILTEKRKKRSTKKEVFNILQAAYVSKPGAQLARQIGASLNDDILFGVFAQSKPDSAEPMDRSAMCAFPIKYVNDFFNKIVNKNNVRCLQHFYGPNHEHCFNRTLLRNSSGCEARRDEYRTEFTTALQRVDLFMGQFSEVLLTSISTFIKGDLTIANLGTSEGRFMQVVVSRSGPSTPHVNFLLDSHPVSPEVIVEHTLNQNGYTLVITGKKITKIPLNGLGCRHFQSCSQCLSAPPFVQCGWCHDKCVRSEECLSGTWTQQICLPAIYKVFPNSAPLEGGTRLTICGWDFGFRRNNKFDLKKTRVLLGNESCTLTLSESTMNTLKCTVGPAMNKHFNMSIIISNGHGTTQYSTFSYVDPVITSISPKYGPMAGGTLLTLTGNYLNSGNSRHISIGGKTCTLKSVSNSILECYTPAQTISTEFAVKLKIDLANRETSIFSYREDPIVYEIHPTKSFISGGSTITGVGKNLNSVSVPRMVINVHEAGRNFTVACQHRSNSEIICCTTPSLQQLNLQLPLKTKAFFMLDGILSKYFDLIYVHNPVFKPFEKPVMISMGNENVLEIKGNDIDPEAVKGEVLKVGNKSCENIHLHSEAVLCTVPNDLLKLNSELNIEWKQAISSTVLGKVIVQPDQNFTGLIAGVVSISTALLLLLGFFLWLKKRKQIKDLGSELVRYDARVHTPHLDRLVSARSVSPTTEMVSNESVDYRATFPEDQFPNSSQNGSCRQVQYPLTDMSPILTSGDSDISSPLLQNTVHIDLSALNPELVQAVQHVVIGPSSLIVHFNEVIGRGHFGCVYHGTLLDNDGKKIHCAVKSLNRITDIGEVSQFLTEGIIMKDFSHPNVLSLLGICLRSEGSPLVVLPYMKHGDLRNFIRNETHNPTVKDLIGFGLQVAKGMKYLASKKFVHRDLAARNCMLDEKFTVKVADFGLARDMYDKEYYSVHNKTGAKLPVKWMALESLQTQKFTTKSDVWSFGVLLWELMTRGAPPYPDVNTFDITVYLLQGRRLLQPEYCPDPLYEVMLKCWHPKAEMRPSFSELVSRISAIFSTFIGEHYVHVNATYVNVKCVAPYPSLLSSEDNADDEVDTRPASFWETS
T5 sequence (P14210 other isoform, or with tags, fused parts or gaps limits assumed, chain 1 of 2): as the sequence (P14210 32-489 isoform P14210-3) above, with K455I, Q456E, L457G counted along it
T5 sequence (P14210 495-728 limits assumed, chain 2 of 2): as the sequence (P14210 495-728) above

Molecule: CC[C@H](C)[C@@H]1NC(=O)[C@H](CCCNC(=N)N)NC(=O)[C@H](Cc2ccccc2)NC(=O)[C@H](CCCCN)NC(=O)[C@@H](Cc2c[nH]c3ccccc23)NC(=O)CSC[C@@H](C(=O)NCC(N)=O)NC(=O)[C@H](CCCCN)NC(=O)[C@H](Cc2ccc(O)cc2)NC(=O)[C@H](Cc2c[nH]c3ccccc23)NC(=O)[C@H](CCCCN)NC(=O)[C@H](CO)NC1=O [HiP-12, KFRISKWYK]
kon (HGF [1]): 700000 M⁻¹ s⁻¹
koff (HGF [1]): 0.0079 s⁻¹

Molecule: CC[C@H](C)[C@@H]1NC(=O)[C@H](CCCCN)NC(=O)[C@H](Cc2ccccc2)NC(=O)[C@H]([C@@H](C)CC)NC(=O)[C@@H](Cc2c[nH]c3ccccc23)NC(=O)CSC[C@@H](C(=O)NCC(N)=O)NC(=O)[C@H](CCCCN)NC(=O)[C@H](Cc2ccc(O)cc2)NC(=O)[C@H](Cc2c[nH]c3ccccc23)NC(=O)[C@H](CCCCN)NC(=O)[C@H](CO)NC1=O [HiP-13, IFKISKWYK]
kon (HGF [1]): 1.9e+06 M⁻¹ s⁻¹
koff (HGF [1]): 0.004 s⁻¹

Molecule: COc1cc2ncnc(Nc3ccc(F)c(Cl)c3)c2cc1OCCCN1CCOCC1 [gefitinib, reference compound]
growth of lung cancer cells (PC-9 cells): strongly inhibits growth of lung cancer cells

Molecule: biotinylated HGF: hHGF biotinylated using a succinimidyl biotin labeling kit
MET activation activity compared with non-labeled HGF (MET): activity equivalent to that of non-labeled HGF

Molecule: fluorescein HGF: hHGF labeled with fluorescein using a succinimidyl fluorescein labeling kit
MET activation activity compared with non-labeled HGF (MET): activity equivalent to that of non-labeled HGF

Molecule: {CH2CO}-[dW]PLSKWWYSKRC[βAla][PEG11″] (thioether N-12 (inferred), also called HiP-8 modified peptide) [HiP-8-PEG11]
IC50 (read off the curve) (fluorescein-HGF [3]): ~1 nM

Molecule: {CH2CO}-[dW]KHKISKWKKC (thioether N-11 (inferred)) [cyclic peptide HiP-6]
MET inhibitory activity (MET activation inhibition test, EHMES-1 cells) [4]: ≥ 100 nM

B3: HiP-8-PEG11-biotin (peptide)
peptide: {CH2CO}-[dW]PLSKWWYSKRC-{βAla-PEG11′-K(D-biotin)}
modifications: thioether N-12 (inferred)
notes: also called immobilized HiP-8-PEG11; HiP-8 (in the staining text)
Kd (tcHGF(Xa)): 2.5 nM

B4: HiP-8-PEG5 (peptide)
peptide: {CH2CO}-[dW]PLSKWWYSKRC[PEG5′]
modifications: thioether N-12; also: further groups not given here
notes: HiP-8 with a PEG5 tail; also called HiP-8 modified peptide
IC50 (read off the curve) (fluorescein-HGF [7]): ~1 nM

Molecule: {CH2CO}-[dW]TRKISKWYKC (thioether N-11 (inferred)) [cyclic peptide HiP-1]
MET inhibitory activity (MET activation inhibition test, EHMES-1 cells) [4]: ≥ 100 nM

Results, then the molecule that gave them:

MET inhibitory activity (HGF [2]): had MET inhibitory activity
Molecule: KHKISKWKK ({CH2CO}-[dW]KHKISKWKKC; thioether N-11 (inferred)) [HiP-6, thioether cyclic peptide]

MET inhibitory activity (HGF [2]): had MET inhibitory activity
Molecule: TRKISKWYK ({CH2CO}-[dW]TRKISKWYKC; thioether N-11 (inferred)) [HiP-1, thioether cyclic peptide]

MET inhibitory activity (MET activation inhibition test, EHMES-1 cells) [4]: ≥ 100 nM
Molecule: {CH2CO}-[dW]QYKVSKVVYKC (thioether N-12 (inferred)) [cyclic peptide HiP-14]

MET activation inhibition concentration (IC50), EHMES-1 cells stimulated with hHGF [4]: 8 nM
Kd [5]: 0.4 nM
IC50 (fluorescein-HGF [6]): 0.9 nM
IC50 (read off the curve) (fluorescein-HGF [3]): ~1 nM
B1: cyclic peptide HiP-8 (peptide)
peptide: {CH2CO}-[dW]PLSKWWYSKRC
modifications: thioether N-12 (inferred)
notes: a C-terminal tail (X')r or amide after Cys is not known

MET inhibitory activity (MET activation inhibition test, EHMES-1 cells) [4]: ≥ 100 nM
Kd [5]: 12 nM
B2: cyclic peptide HiP-12 (peptide)
peptide: {CH2CO}-[dW]KFRISKWYKC
modifications: thioether N-11 (inferred)
notes: C-terminal tail after Cys not known (drawing)

MET inhibitory activity (MET activation inhibition test, EHMES-1 cells) [4]: ≥ 100 nM
Molecule: {CH2CO}-[dW]NKKVSKWYKRGC (thioether N-13 (inferred)) [cyclic peptide HiP-16]

MET inhibitory activity (MET activation inhibition test, EHMES-1 cells) [4]: ≥ 100 nM
Molecule: {CH2CO}-[dW]NRGINKYWKC (thioether N-11 (inferred)) [cyclic peptide HiP-15]

MET inhibitory activity (MET activation inhibition test, EHMES-1 cells) [4]: ≥ 100 nM
Kd [5]: 2.1 nM
B5: cyclic peptide HiP-13 (peptide)
peptide: {CH2CO}-[dW]IFKISKWYKC
modifications: thioether N-11 (inferred)
notes: as for B2

MET inhibitory activity (MET activation inhibition test, EHMES-1 cells) [4]: ≥ 100 nM
B6: cyclic peptide HiP-9 (peptide)
peptide: Ac-[dW]CKVSKWSKC
modifications: thioether (positions not given here); also: thioether to Cys2 or Cys10, not given here

MET inhibitory activity (MET activation inhibition test, EHMES-1 cells) [4]: ≥ 100 nM
B7: cyclic peptide HiP-10 (peptide)
peptide: Ac-[dW]RYIKLCKISKWSRC
modifications: thioether (positions not given here); also: thioether ring-closing Cys not given here (Cys7 or Cys15)
